{"source": "patent US20120220538A1", "about": "(UNIVERSITY OF LOUISVILLE RESEARCH FOUNDATION, published 2012)", "binders": {"B1": {"name": "soybean-derived lunasin (lunasin purified from soybean white flake) (peptide)", "peptide": "SKWQHQQDSCRKQLQGVNLTPCEKHIMEKIQGRGDDDDDDDDDN", "notes": "Purified from soybean white flake and released from the lunasin-containing complex with a reducing agent; also called purified lunasin; highly purified soybean-derived lunasin"}, "B2": {"name": "synthetic lunasin (peptide)", "peptide": "SKWQHQQDSCRKQLQGVNLTPCEKHIMEKIQGRGDDDDDDDDD", "notes": "Made by peptide synthesis; It is the 43-residue published form of lunasin; also called synthetic lunasin created by peptide synthesis"}}, "key": {"human histone 4": {"target": "human histone 4 (human, UniProt P62805 2-103)", "assay": "in vitro histone binding assay, histone coated on plate, anti-lunasin polyclonal antibody + HRP secondary, A450"}, "human histone 3.3": {"target": "human histone 3.3 (human, UniProt P84243 2-136)", "assay": "in vitro histone binding assay, histone coated on plate, anti-lunasin polyclonal antibody + HRP secondary, A450"}}, "data": [{"binder": "B1", "values": [{"measurement": "binding result", "setting": "human histone 4", "value": "binds"}, {"measurement": "binding result", "setting": "human histone 3.3", "value": "binds"}]}, {"binder": "B2", "values": [{"measurement": "binding result", "setting": "human histone 4", "value": "binds"}, {"measurement": "binding result", "setting": "human histone 3.3", "value": "binds"}]}]}
